By EC50 is commonly meant the concentration that produces a half-maximal response.

The target in this assay is Recombinant envelope glycoprotein gp120 from HIV-1 (CM235) (HIV-1 (CM235)). In words: ELISA.
With “Avaren-Fc produced in glycoengineered ΔXylT/ΔFucT N. benthamiana (AvFc^ΔXF) (Fc fusion)”, the EC50 was 0.048 nM.
In the case of “Aglycosylated Avaren-Fc variant (AvFc^Δgly), N200Q (Fc fusion)”, the concentration giving a half-maximal response (EC50) came out at 0.061 nM.
The value for “Avaren-Fc produced in wild-type N. benthamiana (AvFc^WT) (Fc fusion)” was 0.051 nM.
